# Experimental data reported in the DeepSol protein solubility set.
# Test: soluble on expression in E. coli; label from the status in PepcDB or PDB records
row,Sequence,soluble on expression in E. coli
1,MSLYYKVAVSGSGKVLNVFSSEELLIGERVWLNWRNGKVKGYVLERSLSHENEATPSERDGKSFLSEGHVEIAKWVSERFFSPLGMVFDLFFPQGIDDYKEEVVVSESPFLDFDRMTLRDFLENFGEKALKEMVKKGLVRVEKNFYVKEPRPRVKKRLFLKKRISEIIREHLTVKQRMVVEYLQFNDGVPLEELLEDLEVSKSVIETLQRKNIVEIVSGDVFPKKRRILRGDFKGNISKENLFFGPTGSGKTEALFELIDVYSRKGTVLFLVPEVSVLTHTLSRLKGAFPDLKIGIYHSYLSRARKNLEWYKAASGKIDVLLGTRSAVFVPVKNLSLLIVDEEHDESFYQHTRPSYDAIVVARKISEVFDVPIILSSATPDLWTYREAKEGRIRTFNFTRRFGSLSVEVVDMRNEEKIGSFAKKTLDRIEETLEEGKRVLIYVRRKGFWGRVQCEVCGYVLKCENCDVSLVYHSDTHSLKCHQCGREYGLVESCPRCGGRLVGRTAGTERVERELKRYFPTRRIARVDREVVDNIMELESYIDKLIRGEIDILVGTRLITKSLSVPEIGLVCIMDVDSLIFNPDYSSSLRTFQLVVQALGRASRGDQGKAIIQTYNPEDTIIRKALEEDVNGFYAEELERRKALGYPPYRHLIQVAVKSKNPEVGKNSLTSLKEFLKGEEVLGPVEHWVFKLRGFYRHHLIVKTEDLERVLPKLEKALRILGIDAIVRVDPPTLEVSDEGHHHHHH,not soluble
2,MSMDIVMKSDEQPFISAPVCFKTFAFFAKASAEECKLLASGSNARESFQQATGLSEKITEDIYRQIDVSHISSMVFNREMDGGIERNRLGSQAILLDENSRRRNPQFKSIALRSLRYDHIDHRALARKSPHLMPPTYIKEEIMDDELDEVKEEEVSVGEAALPTAKVELNMDHPEKDLIISTSVYLGYTRTLQYHEIRLGRLMKVTDRLELTGDHTLRDLKNAFSCPIDFSFSDDFSEKKPSFKDMAKNKWPSSMFFIHDTFYIDSNTGDQFVDPSITIRTWAKKFDYIGPMHVKQMSETRIGDLICRLGQPYVYIHQGVCEHLIVFNDLCLRDESHTNVEFPRRLVERNFRRIACDTCKEASAHWMIVDHDNLLPNSPGYLCSSCYKEFCFDVNGNKVCQFKAVPYCDRKDIGDGRQFFTELDL,not soluble
3,MSMLCSLYRITPEQVTKLKDFPDAIGELVGFTAPPPKVSFLSKLFGKPPKQLSSSGQQFEPVAESDIFELNQAWHILHFLFSGTNAESPWPGGFLISGGEEIGPDQGYGPIRLFDSELSRAVAGFLDTQSFKMLDSAYVASEIEATEIYWKVSSEHTERQRQLEELWSMVKELQTFFEHTVRAGNATLLSIY,not soluble
4,MSMSHINYNHLYYFWHVYKEGSVVGAAEALYLTPQTITGQIRALEERLQGKLFKRKGRGLEPSELGELVYRYADKMFTLSQEMLDIVNYRKESNLLFDVGVADALSKRLVSSVLNAAVVEGEPIHLRCFESTHEMLLEQLSQHKLDMIISDCPIDSTQQEGLFSVRIGECGVSFWCTNPPPEKPFPACLEERRLLIPGRRSMLGRKLLNWFNSQGLNVEILGEFDDAALMKAFGAMHNAIFVAPTLYAYDFYADKTVVEIGRVENVMEEYHAIFAERMIQHPAVQRICNTDYSALFSPAVR,soluble
5,MSMTDLLNAEDIKKAVGAFSATDSFDHKKFFQMVGLKKKSADDVKKVFHMLDKDKSGFIEEDELGFILKGFSPDARDLSAKETKMLMAAGDKDGDGKIGVDEFSTLVAES,soluble
6,MSNELPWQVWTPDDLAPPPETFVPVEADNVTLTEDTPEPELTAEQQLEQELAQLKIQAHEQGYNAGLAEGRQKGHAQGYQEGLAQGLEQGQAQAQTQQAPIHARMQQLVSEFQNTLDALDSVIASRLMQMALEAARQVIGQTPAVDNSALIKQIQQLLQQEPLFSGKPQLRVHPDDLQRVEEMLGATLSLHGWRLRGDPTLHHGGCKVSADEGDLDASVATRWQELCRLAAPGVL,not soluble
7,MSNEYDEYIANHTDPVKAINWNVIPDEKDLEVWDRLTGNFWLPEKIPVSNDIQSWNKMTPQEQLATMRVFTGLTLLDTIQGTVGAISLLPDAETMHEEAVYTNIAFMESVHAKSYSNIFMTLASTPQINEAFRWSEENENLQRKAKIIMSYYNGDDPLKKKVASTLLESFLFYSGFYLPMYLSSRAKLTNTADIIRLIIRDESVHGYYIGYKYQQGVKKLSEAEQEEYKAYTFDLMYDLYENEIEYTEDIYDDLGWTEDVKRFLRYNANKALNNLGYEGLFPTDETKVSPAILSSLSPNADENHDFFSGSGSSYVIGKAEDTTDDDWDF,soluble
8,MSNFSEGEIFIANIEKKSLECRENDEIVVLKICELCNIIYPIFNKIFGNGFVGDTLKKDLKNSSSQVQRAIEKFPEETKYVSMLYSYNINKYENMEKLKRDLDNGIISFLWMKRTLEFIITFLEKCYITCSETKLSICAQEAYNEVLKKYHGFITSKIVKLCLKLSPTKDILTKKLGFQTHQQASTVLQKCLSITKPLVRDISVTIEKFNCDFEEKI,not soluble
9,MSNICKTVSLRTRKIKDGHMLSYYLDYYPGYRDESTMKVIRHESLGIYIYAKPKNQMEQKYNLNLMARAEAIRCRRFEAIVNERYDFFDKEKMKGDFLAYFKKLADKKNSKWQHVYMHFRTFTQGKCTFGEINVDLCNRFREYLLTAPQGLHKNRKLHINSAANYWSTFRASIHTAYRDRKIKENPNGFLERIETIPTDKEHLSQDEVIRLASTPCSAPALKRAFLFSCLTALRKSDIKKLTWEEIQPYGSDGVMYVTTRMQKTKDIVHNPISEEALELIGYSPDKRGKVFPDFK,not soluble
10,MSNIIKQLEQEQLKQNVPSFRPGDTLEVKVWVVEGSKRRLQAFEGVVIAIRNRGLHSAFTLRKVSNGVGVERVFQTHSPAVDSIAVKRKGAVRKAKLYYLRERSGKSARIKERLGALEHHHHHH,not soluble
11,MSNISTPQPRIGFVSLGCPKNLVDSERILTELRTEGYQVVPRYDDAELVIVNTCGFIDSAVQESLEAIGEALNENGKVIVTGCLGAKENQIREVHPKVLEITGPHSYEQVLSHVHQYVPKPTHNPFTSLVPEQGVKLTPRHYAYLKISEGLEHHHHHH,soluble
12,MSNKLDGINKMITAKHKQMDDLYDEKREVKALIDESDELNHSIEQLYQHLGDRYHSSNMASRMEQFRDEFHFAKRRSTEALYEQQQQIQHGIRKAEEEMIDLEMRRNVEIETVTKEENKWKQLEHHHHHH,soluble
13,MSNKNYVFEEAKESLSSILFNGDSDRTEAGFFDGSVESWNDEDMIDGAKWVDRLVSEMTKAINIDDMRRRVAVILEALESIIKKNTNASKKLEYASMKESLQSLINDNQILKRVIANQHQRSSENEEKAKQVLHLRGVVGQYQEQVHKLELSNYAMKLHLQRSQQQQTSFSGNLPPDIY,soluble
14,MSNLKQLRTRIKSVKSTQKITKAMQLVSASKMAKIKSQIANSNFYIEAVSKMMSAILSIDMYELSIEEQKFFNTVPNKANLLIVMTSQRGLCGTFNYSIIKQVKNDIKELENKGEQIKLIIIGKKGYEALKRQYVNYIDSYFELPKIHDENLMLQVKQKIMSAVENLEVSNCVIYFNKFKNAMTQIMTRQQILPVAKYQDDSMIDNPIVNLVGFGYKERGVKPINNRRATSDIVGESKSIDYNYEYEGESLISNLINLYVNSQINYALLQSRASEEGARMTAMENATNNANDLISKLVLKLNRSRQAIITTELIEIIAGSEVV,not soluble
15,MSNSDDEIQEIEAKRQKMSQEDSEVEIEILDEPEQGKLKNSSMSDEQKLHEFAIITATDEAFAQSILQDVDWDLKKALDVFYGSEAFAEARSAAVMGASSSMASSGAAVMTAEDLKGFEVSVMSWNIDGLDGRSLLTRMKAVAHIVKNVNPDILFLQEVVDRDLAPIDKLQSLYKIYYSNKGCQYYTAILVSKMFDVEKHDVIHFQNSGMYRTLQILEGSIGGLKVFLLNTHLESTREHRPQRCAQFGFCMDKVREIIAQNPGALVFFGGDLNLRDEEVSRVPDGVKDAWEAAGSDNKTKFTWDTFKNDNKQGFHGAKMRFDRLYWSGPLDKVKFTLEGRQRIRSCLCFPSDHWAINATFFA,not soluble
